The text below walks through data of paper PMC9352680, “A comprehensive thermodynamic model for RNA binding by the Saccharomyces cerevisiae Pumilio protein PUF4”.

A value given as a limit tells only on which side of the number the result lay.

B1: Id_i_S2_P3E.5_K3.1_C3.3_[T-3G]_[C-2T]_[T-1C]_H3.1_A3.1_F3.1_T3.2 (ssRNA)
RNA: UUUGAUUAAUAUGAUAUCGUUCUUUCUGUCUGUAUAUAUAUUCUUUCUCGAUAUCAUAUUAAUCUUU
B2: Id_i_S2_P3E.7_K3.3_C3.3_[T-3A]_[C-2T]_[T-1A]_H3.3_A3.1_F3.1_T3.2 (ssRNA)
RNA: UUUGAUUAAUAUGAUAUCGUUCUUUCUAUAACACUAUAUAUUCUUUCUCGAUAUCAUAUUAAUCUUU
B3: Id_i_S2_P3E.7_K3.3_C3.3_[T-3C]_[C-2A]_[T-1G]_H3.3_A3.1_F3.1_T3.2 (ssRNA)
RNA: UUUGAUUAAUAUGAUAUCGUUCUUUCUCAGACACUAUAUAUUCUUUCUCGAUAUCAUAUUAAUCUUU
B4: Id_i_S2_P3E.7_K3.3_C3.3_[T-3C]_[C-2A]_[T-1A]_H3.3_A3.1_F3.1_T3.2 (ssRNA)
RNA: UUUGAUUAAUAUGAUAUCGUUCUUUCUCAAACACUAUAUAUUCUUUCUCGAUAUCAUAUUAAUCUUU
B5: Id_i_S2_P3E.5_K3.1_C3.3_[T-3A]_[C-2G]_[T-1C]_H3.1_A3.1_F3.1_T3.2 (ssRNA)
RNA: UUUGAUUAAUAUGAUAUCGUUCUUUCUAGCUGUAUAUAUAUUCUUUCUCGAUAUCAUAUUAAUCUUU
B6: Id_i_S2_P3E.5_K3.1_C3.3_[T-3C]_[C-2T]_[T-1A]_H3.1_A3.1_F3.1_T3.2 (ssRNA)
RNA: UUUGAUUAAUAUGAUAUCGUUCUUUCUCUAUGUAUAUAUAUUCUUUCUCGAUAUCAUAUUAAUCUUU
B7: Id_i_S2_P3E.5_K3.1_C3.3_[T-3A]_[C-2A]_[T-1C]_H3.1_A3.1_F3.1_T3.2 (ssRNA)
RNA: UUUGAUUAAUAUGAUAUCGUUCUUUCUAACUGUAUAUAUAUUCUUUCUCGAUAUCAUAUUAAUCUUU
B8: Id_i_S2_P3E.5_K3.1_C3.3_[T-3C]_[C-2T]_[T-1C]_H3.1_A3.1_F3.1_T3.2 (ssRNA)
RNA: UUUGAUUAAUAUGAUAUCGUUCUUUCUCUCUGUAUAUAUAUUCUUUCUCGAUAUCAUAUUAAUCUUU
B9: Id_i_S2_P3E.5_K3.1_C3.3_[T-3C]_[C-2T]_[T-1G]_H3.1_A3.1_F3.1_T3.2 (ssRNA)
RNA: UUUGAUUAAUAUGAUAUCGUUCUUUCUCUGUGUAUAUAUAUUCUUUCUCGAUAUCAUAUUAAUCUUU
B10: Id_i_S2_P3E.6_K3.2_C3.3_[T-3C]_[C-2T]_[T-1C]_H3.2_A3.1_F3.1_T3.2 (ssRNA)
RNA: UUUGAUUAAUAUGAUAUCGUUCUUUCUCUCUAUAUAUAUAUUCUUUCUCGAUAUCAUAUUAAUCUUU
B11: Id_i_S2_P3E.6_K3.2_C3.3_[T-3C]_[C-2A]_[T-1C]_H3.2_A3.1_F3.1_T3.2 (ssRNA)
RNA: UUUGAUUAAUAUGAUAUCGUUCUUUCUCACUAUAUAUAUAUUCUUUCUCGAUAUCAUAUUAAUCUUU
B12: Id_i_S2_P3E.6_K3.2_C3.3_[T-3A]_[C-2A]_[T-1C]_H3.2_A3.1_F3.1_T3.2 (ssRNA)
RNA: UUUGAUUAAUAUGAUAUCGUUCUUUCUAACUAUAUAUAUAUUCUUUCUCGAUAUCAUAUUAAUCUUU
B13: Id_i_S2_P3E.5_K3.1_C3.3_[T-3C]_[C-2A]_[T-1C]_H3.1_A3.1_F3.1_T3.2 (ssRNA)
RNA: UUUGAUUAAUAUGAUAUCGUUCUUUCUCACUGUAUAUAUAUUCUUUCUCGAUAUCAUAUUAAUCUUU
B14: Id_i_S2_P3E.6_K3.2_C3.3_[T-3G]_[C-2G]_[T-1C]_H3.2_A3.1_F3.1_T3.2 (ssRNA)
RNA: UUUGAUUAAUAUGAUAUCGUUCUUUCUGGCUAUAUAUAUAUUCUUUCUCGAUAUCAUAUUAAUCUUU
B15: Id_i_S2_P3E.7_K3.3_C3.3_[T-3G]_[C-2T]_[T-1A]_H3.3_A3.1_F3.1_T3.2 (ssRNA)
RNA: UUUGAUUAAUAUGAUAUCGUUCUUUCUGUAACACUAUAUAUUCUUUCUCGAUAUCAUAUUAAUCUUU
B16: Id_i_S2_P3E.6_K3.2_C3.3_[T-3C]_[C-2G]_[T-1C]_H3.2_A3.1_F3.1_T3.2 (ssRNA)
RNA: UUUGAUUAAUAUGAUAUCGUUCUUUCUCGCUAUAUAUAUAUUCUUUCUCGAUAUCAUAUUAAUCUUU
B17: Id_i_S2_P3E.7_K3.3_C3.3_[T-3C]_[C-2A]_[T-1C]_H3.3_A3.1_F3.1_T3.2 (ssRNA)
RNA: UUUGAUUAAUAUGAUAUCGUUCUUUCUCACACACUAUAUAUUCUUUCUCGAUAUCAUAUUAAUCUUU
B18: Id_i_S2_P3E.6_K3.2_C3.3_[T-3A]_[C-2T]_[T-1C]_H3.2_A3.1_F3.1_T3.2 (ssRNA)
RNA: UUUGAUUAAUAUGAUAUCGUUCUUUCUAUCUAUAUAUAUAUUCUUUCUCGAUAUCAUAUUAAUCUUU
B19: Id_i_S2_P3E.7_K3.3_C3.3_[T-3A]_[C-2T]_[T-1G]_H3.3_A3.1_F3.1_T3.2 (ssRNA)
RNA: UUUGAUUAAUAUGAUAUCGUUCUUUCUAUGACACUAUAUAUUCUUUCUCGAUAUCAUAUUAAUCUUU
B20: Id_i_S2_P3E.6_K3.2_C3.3_[T-3A]_[C-2G]_[T-1C]_H3.2_A3.1_F3.1_T3.2 (ssRNA)
RNA: UUUGAUUAAUAUGAUAUCGUUCUUUCUAGCUAUAUAUAUAUUCUUUCUCGAUAUCAUAUUAAUCUUU
B21: Id_i_S2_P3E.5_K3.1_C3.3_[T-3A]_[C-2T]_[T-1C]_H3.1_A3.1_F3.1_T3.2 (ssRNA)
RNA: UUUGAUUAAUAUGAUAUCGUUCUUUCUAUCUGUAUAUAUAUUCUUUCUCGAUAUCAUAUUAAUCUUU
B22: Id_i_S2_P3E.7_K3.3_C3.3_[T-3C]_[C-2T]_[T-1A]_H3.3_A3.1_F3.1_T3.2 (ssRNA)
RNA: UUUGAUUAAUAUGAUAUCGUUCUUUCUCUAACACUAUAUAUUCUUUCUCGAUAUCAUAUUAAUCUUU
B23: Id_i_S2_P3E.7_K3.3_C3.3_[T-3A]_[C-2G]_[T-1C]_H3.3_A3.1_F3.1_T3.2 (ssRNA)
RNA: UUUGAUUAAUAUGAUAUCGUUCUUUCUAGCACACUAUAUAUUCUUUCUCGAUAUCAUAUUAAUCUUU
B24: Id_ii_S2_P3E.4_K3.3_C3.2_[C-2T]_[T-1A]_H3.3_A3.1_F3.1_T3.2 (ssRNA)
RNA: UUUGAUUAAUAUGAUAUCGUUCUUUCUUAACACUAUAUAUUCUUUCUCGAUAUCAUAUUAAUCUUU
B25: Id_ii_S2_P3E.4_K3.3_C3.2_[C-2A]_[T-1C]_H3.3_A3.1_F3.1_T3.2 (ssRNA)
RNA: UUUGAUUAAUAUGAUAUCGUUCUUUCUACACACUAUAUAUUCUUUCUCGAUAUCAUAUUAAUCUUU
B26: Id_ii_S2_P3E.4_K3.3_C3.2_[C-2A]_[T-1A]_H3.3_A3.1_F3.1_T3.2 (ssRNA)
RNA: UUUGAUUAAUAUGAUAUCGUUCUUUCUAAACACUAUAUAUUCUUUCUCGAUAUCAUAUUAAUCUUU

In the data set the target is T1, PUF4 RNA-binding domain (Saccharomyces cerevisiae, UniProt P25339 537-888).
T1 sequence: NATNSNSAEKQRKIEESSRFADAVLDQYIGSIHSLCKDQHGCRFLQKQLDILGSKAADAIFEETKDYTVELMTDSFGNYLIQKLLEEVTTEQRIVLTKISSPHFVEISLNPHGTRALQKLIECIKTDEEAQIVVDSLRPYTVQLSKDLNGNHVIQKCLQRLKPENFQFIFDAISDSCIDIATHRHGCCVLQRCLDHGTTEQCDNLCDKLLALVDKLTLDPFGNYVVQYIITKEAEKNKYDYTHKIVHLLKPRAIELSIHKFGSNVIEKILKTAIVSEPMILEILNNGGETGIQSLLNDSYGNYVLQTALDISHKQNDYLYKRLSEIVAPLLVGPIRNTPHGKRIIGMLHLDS
Briefly: Mg; RNA-MaP; 20 mM Na-HEPES pH 7.4, 30 mM KOAc, 0.75 mM MgCl2, 0.1% Tween-20, 5% glycerol, 0.1 mg/mL BSA, 2 mM DTT; 25 C; 0.0125-409.6 nM protein. The conditions noted are these: tags: N-His6-TEV cleaved; C-SNAP kept, Cy3B-labelled; label: tethered on chip by stalled RNA polymerase.
For ACAAACAAUAUAUAUAUAACAAAC (ssRNA) [Id_ii_S3_P3E.3_K3.2_C3.2_[C-2A]_[T-1A]_H3.2_A3.1_F3.1_T3.2], the affinity, expressed as Kd, was 531 nM. In the case of B1, the Kd – broadly, the constant that tells how readily two partners part at equilibrium – was found to be 2.83 nM. B2 gave a Kd of 708 nM.

For the molecule B3, the Kd was 610 nM. Take B4: the dissociation constant Kd turned out to be 222 nM. In the case of B5 it was 2.13 nM; in that of B6, 3.83 nM; in that of B7, 1.39 nM. In the case of B8 it was 0.917 nM; in that of B9, 1.23 nM; in that of B10, 35 nM.

In turn, B11 showed a dissociation constant (Kd) of 68.5 nM. B12: binding was put at a Kd of 105 nM.

The molecule B13 displayed a Kd of 1.09 nM. With B14, the Kd was determined as 1300 nM.

As to B15, the dissociation constant Kd amounted to 5.76 nM.

B16 registered a Kd of 68.2 nM.

B17 showed a Kd of 482 nM.

The molecule B18 displayed a Kd of 170 nM.

In turn, B19 had a Kd of 597 nM. On to B20, for which the Kd was 528 nM. Next, B21: 1.7 nM. B22: the Kd came out at 214 nM.

The molecule B23 returned a Kd of 429 nM. Regarding ACAAACUCACACUAUAUAACAAAC (ssRNA) [Id_i_S3_P3E.4_K3.3_C3.2_[C-2T]_[T-1C]_H3.3_A3.1_F3.1_T3.2], the Kd is over 2300 nM. In turn, UCUCUUCAUAUAUUAUCUCUU (ssRNA) [Ib_S1_P4E.1_K4.1_C4.1_H4.1_[T1C]_[G2A]_A4.1_F4.1_T4.1] registered a Kd of 487 nM. Molecule ACAAACAGACACUAUAUAACAAAC (ssRNA) [Id_ii_S3_P3E.4_K3.3_C3.2_[C-2A]_[T-1G]_H3.3_A3.1_F3.1_T3.2] had a Kd of over 2300 nM.

In turn, ACAAACGGUAUAUAUAUAACAAAC (ssRNA) [Id_ii_S3_P3E.3_K3.2_C3.2_[C-2G]_[T-1G]_H3.2_A3.1_F3.1_T3.2] returned a Kd of 550 nM. As to ACAAACGCACACUAUAUAACAAAC (ssRNA) [Id_ii_S3_P3E.4_K3.3_C3.2_[C-2G]_[T-1C]_H3.3_A3.1_F3.1_T3.2], binding was characterised by a dissociation constant (Kd) of 1830 nM. Consider ACAAACAGUAUAUAUAUAACAAAC (ssRNA) [Id_i_S3_P3E.3_K3.2_C3.2_[C-2A]_[T-1G]_H3.2_A3.1_F3.1_T3.2], for which the Kd amounted to 385 nM. In the case of B24 it was 215 nM; in that of B25, 242 nM; in that of B26, 238 nM. In turn, UCUCUUCUUAUAUUAUCUCUU (ssRNA) [Ib_S1_P4E.1_K4.1_C4.1_H4.1_[T1C]_[G2T]_A4.1_F4.1_T4.1] had a Kd of 685 nM. For the molecule UCUCUUCCUAUAUUAUCUCUU (ssRNA) [Ib_S1_P4E.1_K4.1_C4.1_H4.1_[T1C]_[G2C]_A4.1_F4.1_T4.1], the affinity, expressed as Kd, was 1290 nM.
